{
  "source": "paper PMC7644948",
  "about": "(iScience, 2020)",
  "biological_target": "the molecule itself",
  "experiment": "SEC",
  "data": [
    {"protein": "PKM2 mutant with triple mutations (R399E, K422A, and N523A) (enzyme) not shown", "values": [
      {"measurement": "stoichiometry N", "value": 2}
    ]}
  ]
}
